# Values joined by “and” are separate entries in the source; they are usually repeats but may differ in a detail not shown here. Identical values can stand only once.
# What was measured:
# [1] = target: T1, human FolR1 on cells (HeLa, SKOV3, HT-29, transfected HEK) (human, UniProt P15328 25-234); test: flow cytometry, tumor cell panel
# T1 construct: whole, on cells
# [2] = target: T2, human BCMA on myeloma cells (H929, U266) (human, UniProt Q02223 1-184); test: flow cytometry on BCMA-positive H929 cells, PE anti-human Fc secondary antibody, median fluorescence intensity
# T2 construct: whole, on cells
# T2 sequence (looked up): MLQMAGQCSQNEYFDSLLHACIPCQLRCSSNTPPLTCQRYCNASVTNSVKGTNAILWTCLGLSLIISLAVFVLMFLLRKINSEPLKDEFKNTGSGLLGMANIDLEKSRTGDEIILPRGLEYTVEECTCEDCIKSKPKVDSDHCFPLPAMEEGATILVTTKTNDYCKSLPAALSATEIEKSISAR
# Protocol: (§1) Briefly, cultured cells are harvested, counted and cell viability was evaluated using ViCell. Viable cells are then adjusted to 2×10⁶ cells per ml in BSA-containing FACS Stain Buffer (BD Biosciences). 100 μl of this cell suspension were further aliquoted per well into a round-bottom 96-well plate and incubated with 30 μl of the BCMA-TCB CLC antibodies or corresponding TCB control for 30 min at 4° c. All BCMA-TCB CLC antibodies (and TCB controls) were titrated and analyzed in final concentration range between 0.12-500 nM. […] Cells were then washed twice with Stain Buffer (BD Biosciences), fixed using 100 ul BD Fixation buffer per well (#BD Biosciences, 554655) at 4° C. for 20 min, resuspended in 120 μl FACS buffer and analyzed using BD FACS CantoII.
# [3] = target: T2, human BCMA on myeloma cells (H929, U266); test: cell-based or functional assay
# [4] = target: T2, human BCMA on myeloma cells (H929, U266); test: cell-based or functional assay; remark: listed apart in the source
# [5] = target: T3, recombinant human BCMA Fc(kih) (human, UniProt Q02223 4-53, biotin on avi-tag where coupled to SA chip ; biotin on the avi-tag of the Fc-knob chain where coupled to the SA chip (tag not in the letters)); test: SPR Biacore, binder captured via anti-Fab, BCMA-Fc analyte
# T3 construct: also called huBCMA Fc(kih); huBCMA; not shown: human IgG1 hinge-Fc(knob)-avi fused to the ECD, and the unfused Fc(hole) chain
# T3 chain: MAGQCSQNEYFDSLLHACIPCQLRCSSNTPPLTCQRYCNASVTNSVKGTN
# [6] = target: T4, recombinant murine BCMA Fc(kih) (murine, UniProt O88472 2-49, biotinylated at the avi-tag of the Fc knob chain (not in the letters)); test: as above
# T4 construct: also called muBCMA Fc(kih); not shown: human IgG1 hinge-Fc(knob)-avi and the unfused Fc(hole) chain
# T4 chain: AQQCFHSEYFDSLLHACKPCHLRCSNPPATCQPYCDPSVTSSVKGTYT
# [7] = target: T2, human BCMA on myeloma cells (H929, U266); test: flow cytometry, H929 cells
# Protocol: as §1
# [8] = target: T5, murine FolR1 monovalent Fc fusion, biotinylated (murine, UniProt P35846 25-232, biotin on C-terminal Avi-tag ; Biotin on the C-terminal Avi-tag of the Fc-knob chain (that part is not in the letters).); test: SPR ProteOn, Fab analyte, antigen on chip
# T5 construct: as m1; also called muFolR1; murine FolR1-Fc; not shown: IgG hinge, Fc-knob and C-terminal Avi-tag fused to the ECD, and the co-expressed Fc-hole chain
# Protocol: Immobilization of antigens (ligand): Recombinant antigens were diluted with PBST (10 mM phosphate, 150 mM sodium chloride pH 7.4, 0.005% Tween 20) to 10 μg/ml, then injected at 30 μl/minute in vertical orientation. Injection of analytes: For ‘one-shot kinetics’ measurements, injection direction was changed to horizontal orientation, two-fold dilution series of purified Fab (varying concentration ranges) were injected simultaneously along separate channels 1-5, with association times of 150 or 200 s, and dissociation times of 200 or 600 s, respectively. Buffer (PBST) was injected along the sixth channel to provide an “in-line” blank for referencing. Association rate constants (kₒₙ) and dissociation rate constants (koff) were calculated using a simple one-to-one Langmuir binding model in ProteOn Manager v3.1 software by simultaneously fitting the association and dissociation sensorgrams. The equilibrium dissociation constant (KD) was calculated as the ratio koff/kₒₙ.
# T1 sequence (P15328 25-234): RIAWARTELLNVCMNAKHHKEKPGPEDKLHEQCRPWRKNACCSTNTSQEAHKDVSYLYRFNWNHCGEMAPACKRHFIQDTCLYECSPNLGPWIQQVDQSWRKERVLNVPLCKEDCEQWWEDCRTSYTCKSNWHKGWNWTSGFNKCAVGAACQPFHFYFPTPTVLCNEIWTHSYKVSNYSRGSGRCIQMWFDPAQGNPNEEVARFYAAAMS
# T5 sequence (P35846 25-232 limits assumed): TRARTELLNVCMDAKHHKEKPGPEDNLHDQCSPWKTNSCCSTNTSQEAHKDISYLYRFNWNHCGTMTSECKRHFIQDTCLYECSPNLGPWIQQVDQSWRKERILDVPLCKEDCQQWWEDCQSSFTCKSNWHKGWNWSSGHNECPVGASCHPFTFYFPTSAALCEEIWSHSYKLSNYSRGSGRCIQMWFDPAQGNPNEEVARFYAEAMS
binder,measurement,setting,value
"DP47 GS TCB (2+1 Crossfab-IgG P329G LALA inverted, untargeted TCB) (bispecific antibody, negative control; also called DP47 TCB; DP47-TCB) heavy 1: not shown heavy 2: not shown light 1: not shown light 2: QAVVTQEPSLTVSPGGTVTLTCGSSTGAVTTSNYANWVQEKPGQAFRGLIGGTNKRAPGTPARFSGSLLGGKAALTLSGAQPEDEAEYYCALWYSNLWVFGGGTKLTVLSSASTKGPSVFPLAPSSKSTSGGTAALGCLVKDYFPEPVTVSWNSGALTSGVHTFPAVLQSSGLYSLSSVVTVPSSSLGTQTYICNVNHKPSNTKVDKKVEPKSC",binding result,[1],no binding
same,binding result,[2],no binding (tested: 500 nM)
"pSCHLI372-TCB CLC (bispecific antibody, also called pSCHLI372 BCMAxCD3 TCB) heavy 1: not shown heavy 2: EVQLVESGGGLVKPGGSLRLSCAASGFTFSNSGMIWVRQAPGKGLEWVGHIRSKTDGGTTDYAAPVKGRFTISRDDSKNTLYLQMNSLKTEDTAVYYCTTGGSGSFDYWGQGTLVTVSSASTKGPSVFPLAPSSKSTSGGTAALGCLVKDYFPEPVTVSWNSGALTSGVHTFPAVLQSSGLYSLSSVVTVPSSSLGTQTYICNVNHKPSNTKVDKKVEPKSCDKTHTCPPCPAPEAAGGPSVFLFPPKPKDTLMISRTPEVTCVVVDVSHEDPEVKFNWYVDGVEVHNAKTKPREEQYNSTYRVVSVLTVLHQDWLNGKEYKCKVSNKALGAPIEKTISKAKGQPREPQVCTLPPSRDELTKNQVSLSCAVKGFYPSDIAVEWESNGQPENNYKTTPPVLDSDGSFFLVSKLTVDKSRWQQGNVFSCSVMHEALHNHYTQKSLSLSPGK light: QAVVTQEPSLTVSPGGTVTLTCGSSTGAVTTSNYANWVQEKPGQAFRGLIGGTNKRAPGTPARFSGSLLGGKAALTLSGAQPEDEAEYYCALWYSNLWVFGGGTKLTVLGQPKAAPSVTLFPPSSEELQANKATLVCLISDFYPGAVTVAWKADSSPVKAGVETTTPSKQSNNKYAASSYLSLTPEQWKSHRSYSCQVTHEGSTVEKTVAPTECS","EC50 redirected T-cell killing, H929 (Experiment 1)",[3],450 pM and 0.08 µg/ml
same,"EC50 redirected T-cell killing, H929 (Experiment 2)",[3],900 pM and 0.17 µg/ml
same,"EC50 redirected T-cell killing, U266",[4],5700 pM and 1.1 µg/ml
same,Kd,[5],63 nM
same,Kd,[6],344 nM
same,EC50,[7],345 nM and 65.9 µg/mL
"14E4 Fab (Fab, V domains shown, as m51) VH: not shown VL: EIVLTQSPGTLSLSPGERATLSCRASQSVSSSYLAWYQQKPGQAPRLLIYGASSRATGIPDRFSGSGSGTDSTLTISRLEPEDFAVYYCQQPTSSPITFGQGTKVEIK",Kd,[8],6.09 nM
